In IntAct's records for PubMed 14517550:

B1: Caspase Dronc (Drosophila melanogaster (Fruit fly)), Q9XYF4 (parent)
chain: MQPPELEIGMPKRHREHIRKNLNILVEWTNYERLAMECVQQGILTVQMLRNTQDLNGKPFNMDEKDVRVEQHRRLLLKITQRGPTAYNLLINALRNINCLDAAVLLESVDESDSRPPFISLNERRTSRKSADIVDTPSPEASEGPCVSKLRNEPLGALTPYVGVVDGPEVKKSKKIHGGDSAILGTYKMQSRFNRGVLLMVNIMDYPDQNRRRIGAEKDSKSLIHLFQELNFTIFPYGNVNQDQFFKLLTMVTSSSYVQNTECFVMVLMTHGNSVEGKEKVEFCDGSVVDMQKIKDHFQTAKCPYLVNKPKVLMFPFCRGDEYDLGHPKNQGNLMEPVYTAQEEKWPDTQTEGIPSPSTNVPSLADTLVCYANTPGYVTHRDLDTGSWYIQKFCQVMADHAHDTDLEDILKKTSEAVGNKRTKKGSMQTGAYDNLGFNKKLYFNPGFFNE
partner: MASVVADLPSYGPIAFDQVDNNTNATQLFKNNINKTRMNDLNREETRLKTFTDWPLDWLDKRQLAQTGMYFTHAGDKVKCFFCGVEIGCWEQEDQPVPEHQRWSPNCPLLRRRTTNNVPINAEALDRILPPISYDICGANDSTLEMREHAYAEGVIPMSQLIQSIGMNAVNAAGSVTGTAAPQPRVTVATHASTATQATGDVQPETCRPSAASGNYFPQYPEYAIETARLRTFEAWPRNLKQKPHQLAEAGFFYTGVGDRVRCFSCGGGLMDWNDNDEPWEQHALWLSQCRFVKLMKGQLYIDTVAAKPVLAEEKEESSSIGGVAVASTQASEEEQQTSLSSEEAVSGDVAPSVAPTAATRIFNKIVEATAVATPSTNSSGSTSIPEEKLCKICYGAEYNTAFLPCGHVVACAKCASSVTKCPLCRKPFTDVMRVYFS

Variants of: B1
Conditions: with diap1_drome Diap1, Q24306

Row | effect of a mutation on the interaction | Variant
1 | decreasing interaction | MQPPELEIGMPKRHREHIRKNLNILVEWTNYERLAMECVQQGILTVQMLRNTQDLNGKPFNMDEKDVRVEQHRRLLLKITQRGPTAYNLLINALRNINCLDAAVLLESVDESDSRPPEISLNERRTSRKSADIVDTPSPEASEGPCVSKLRNEPLGALTPYVGVVDGPEVKKSKKIHGGDSAILGTYKMQSRFNRGVLLMVNIMDYPDQNRRRIGAEKDSKSLIHLFQELNFTIFPYGNVNQDQFFKLLTMVTSSSYVQNTECFVMVLMTHGNSVEGKEKVEFCDGSVVDMQKIKDHFQTAKCPYLVNKPKVLMFPFCRGDEYDLGHPKNQGNLMEPVYTAQEEKWPDTQTEGIPSPSTNVPSLADTLVCYANTPGYVTHRDLDTGSWYIQKFCQVMADHAHDTDLEDILKKTSEAVGNKRTKKGSMQTGAYDNLGFNKKLYFNPGFFNE [F118E]
